Data from US20230167200A1 (BIOTHEUS, published 2023).

Columns and labels:
[1] = target: T1, anti-PD-1/TIGIT/human serum albumin trispecific antibody Bi-70-71; assay: flow cytometry on CHO-hTIGIT cells
[2] = target: T2, anti-PD-1/TIGIT/human serum albumin trispecific antibody Bi-72-73; assay: flow cytometry on CHO-hTIGIT cells
[3] = target: T3, human PD-L1 expressed on CHO cells (CHO-hPD-L1 cells) (human, UniProt Q9NZQ7 19-290); assay: flow cytometry on CHO-hPD-L1 cells
T3 construct: whole, on cells; also called CHO-KI-PD-L1/PD-L2

[4] = target: T4, human PD-L2 expressed on CHO cells (CHO-hPD-L2 cells) (human, UniProt Q9BQ51 20-273); assay: flow cytometry on CHO-hPD-L2 cells
T4 construct: whole, on cells; also called CHO-KI-PD-L1/PD-L2
T4 sequence (looked up): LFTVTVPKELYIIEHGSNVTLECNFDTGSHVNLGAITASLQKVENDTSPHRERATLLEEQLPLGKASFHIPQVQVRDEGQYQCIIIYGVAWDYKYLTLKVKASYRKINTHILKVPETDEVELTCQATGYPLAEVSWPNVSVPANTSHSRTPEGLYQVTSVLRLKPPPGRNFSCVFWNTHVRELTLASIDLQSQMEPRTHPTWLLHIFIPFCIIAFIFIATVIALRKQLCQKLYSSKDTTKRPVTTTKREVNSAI

[5] = target: T1, anti-PD-1/TIGIT/human serum albumin …; assay: BLI (Octet), antibody held on PD-1 sensor, human TIGIT 100 nM in solution
[6] = target: T2, anti-PD-1/TIGIT/human serum albumin …; assay: as above

T3 sequence (Q9NZQ7 19-290): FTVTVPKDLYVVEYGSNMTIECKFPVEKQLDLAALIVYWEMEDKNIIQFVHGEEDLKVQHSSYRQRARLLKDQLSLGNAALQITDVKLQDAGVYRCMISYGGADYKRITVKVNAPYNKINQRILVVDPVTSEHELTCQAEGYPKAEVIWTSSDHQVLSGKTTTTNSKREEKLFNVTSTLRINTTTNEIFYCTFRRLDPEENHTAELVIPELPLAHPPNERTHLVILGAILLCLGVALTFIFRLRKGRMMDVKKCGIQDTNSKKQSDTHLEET

B1: human TIGIT expressed on CHO cells (CHO-hTIGIT cells) (receptor, UniProt Q495A1 22-244, looked up)
chain: MMTGTIETTGNISAEKGGSIILQCHLSSTTAQVTQVNWEQQDQLLAICNADLGWHISPSFKDRVAPGPGLGLTLQSLTVNDTGEYFCIYHTYPDGTYTGRIFLEVLESSVAEHGARFQIPLLGAMAATLVVICTAVIVVVALTRKKKALRIHSVEGDLRRKSAGQEEWSPSAPSPPGSCVQAEAAPAGLCGEQRGEDCAELHDYFNVLSYRSLGNCSFFTETG
notes: whole, on cells; also called CHO-hTIGIIT
binding result [1]: binds | binding result [2]: binds

B2: anti-PD-L1/PD-L2 bispecific antibody Fc fusion protein Bi-203-204 (bispecific antibody, human IgG1, kappa, L234A L235A, V domains shown)
V domain 1: QVQLVESGGGLVKPGGSLRLSCAASGHTFIIYAIGWFRQAPGKGLEFVATINWSGSMTNYADSVKGRFTISRDNAKNTVYLQMNSLKPDDTAVYYCAAYVGATISTAHSRYDYWGQGTLVTVSS
V domain 2: EVQLVESGGGLVQPGGSLRLSCAASGRTFSSMTIGWFRQAPGKGLEFVSGIGWTSGLTVYADSVKGRFTISRDNAKNSMYLQMNSLRAEDTAVYYCAADSMNRGQFDYWGQGTLVTVSS
binding result [3]: binds | binding result [4]: binds

B3: human TIGIT (ACROBiosystems) (receptor, UniProt Q495A1 22-141, looked up)
chain: MMTGTIETTGNISAEKGGSIILQCHLSSTTAQVTQVNWEQQDQLLAICNADLGWHISPSFKDRVAPGPGLGLTLQSLTVNDTGEYFCIYHTYPDGTYTGRIFLEVLESSVAEHGARFQIP
notes: Bought protein
binding result [5]: binds | binding result [6]: binds
